# From patent US20130059772A1, “Use of Repeat Sequence Protein Polymers in Personal Care Compositions” (DANISCO US INC., priority 2003, published 2013)
# What was measured:
# [1] = tested on: procollagen type I C-peptide; test: Procollagen assay (type I C-peptide ELISA of fibroblast culture media); assay type: cell-based, human; details: 48 hours, untreated 873 ± 111
# Excerpt: Collagen is synthesized as part of a much larger procollagen peptide. As the peptide is processed to form a mature collagen protein, the propeptide portion is cleaved off (type I C-peptide). Both the mature collagen protein and the type I C-peptide fragment are then released into the extracellular environment and accumulate in the culture media. Since there is a 1:1 stoichiometric ratio between the two parts of the procollagen peptide, assaying for type I C-peptide will reflect the amount of collagen synthesized. Type 1 C-peptide can be assayed via an ELISA based method.
# (§1) The test materials were tested in triplicate.
# Takara procollagen type IC-peptide ELISA kits were used in these experiments. A series of type I C-peptide standards was prepared ranging from 40 ng/ml to 640 ng/ml. An ELISA microplate was then prepared by removing any unneeded strips from the plate frame. To each well in the plate 100 μl of peroxidase-labeled anti procollagen type I-C peptide was added, followed by 20 μA of either sample (tissue culture media) or standard. The microplate was covered and allowed to incubate for 3±0.25 hours at 37° C. After the incubation period, each well was aspirated and washed three times with 400 μl of wash buffer. After the last wash was removed, 100 μl of peroxidase substrate solution (hydrogen peroxide containing tetramethylbenzidine as a chromagen) were added to each well and the plate was incubated for 15±5 minutes at room temperature. After the incubation period, 100 μA of stop solution (1 N sulfuric acid) was added to each well and the plate was read using a microplate reader at 450 nm. To quantify the amount of procollagen present, a standard curve was generated using known concentrations of procollagen type 1-C peptide. […] Mean absorbance values for the test materials and untreated samples was then used to estimate the amount of procollagen type 1-C peptide present in each sample.
# MMP-1 = MMP-1 assay (fluorometric ELISA of fibroblast culture media); assay type: cell-based, human; details: for MMP-1 Activity: 48 hours, untreated 0.11 ± 0.05
# Protocol: MMP-1 is a zinc and calcium dependent endopeptidase that is produced and released from both dermal fibroblasts and keratinocytes, and functions to break down collagens located in the extracellular matrix. Active MMP-1 released into the culture media can be assayed using a fluorescence-based ELISA. […] To quantify the active MMP-1 a fluorogenic substrate linked to a quencher molecule is added and any active MMP-1 present will cleave the peptide linkage between the fluorophore and the quencher molecule. This cleavage will eliminate the quencher molecules ability to inhibit the fluorescent signal of the fluorophore allowing a fluorescent signal that will be proportional to the amount of active MMP-1 present.
# as §1
# R&D Products MMP-1 Fluorokine E fluorometric ELISA kits were used in these experiments. A series of MMP-1 standards was prepared ranging from 0.39 ng/ml to 25 ng/ml and an ELISA microplate was prepared by removing any unneeded strips from the plate frame. In each well, 200 μA of Assay Diluent RD1-64 and 50 μA of each sample were added. For the standards, 100 μl of Assay Diluent RD1-64 and 150 μl of each respective standard were added. The plate was incubated for 3±0.25 hours at room temperature on a rocking platform. At the end of the incubation period, each well was aspirated and then washed four times with 400 μl of wash buffer. […] After the incubation period, the plate was washed four times as described above. After the last wash, 200 μl of substrate solution were added to each well and the plate was incubated for 17-20 hours at 37±2° C. (protected from light). At the end of the incubation period, the fluorescence intensity was measured (excitation 320 nm, emission 405 nm) using a fluorometer using a 20 mS integration time. To quantify the amount of MMP-1 activity, a standard curve was generated using known activity levels of MMP-1. […] Mean absorbance values for the test materials and untreated samples were then used to estimate the amount of MMP-1 activity present in each sample.
# elastin = test: Elastin assay (Fastin colorimetric assay of culture media); assay type: cell-based, human; details: 48 hours, spent fibroblast media, untreated 69 ± 2
# Protocol: Elastin is released by fibroblasts (soluble elastin) into the extracellular space where it is then cross-linked to other elastin proteins to form an extensive network of fibers and sheets (insoluble elastin). Soluble elastin can be readily measured from cell culture medium via a colorimetric assay.
# as §1
# In these experiments, the Biocolor Fastin Elastin Assay kits were used. A 50 μl aliquot of sample material (cell culture medium for soluble elastin) was mixed with 1.0 ml of cold Fastin Precipitating Reagent in a 1.5-ml microcentrifuge tube. In addition to the spent media samples from the fibroblasts, 50 μl aliquots of the test materials diluted into fresh culture media at the concentrations used in the study were also assayed for elastin content. The sample/Fastin Precipitating Reagent mixture was then incubated overnight in an ice water bath to precipitate the elastin. On the following day, the cold microcentrifuge tubes were spun at 10,000×g for 10 minutes to pack the precipitated elastin and the supernatant was removed via careful aspiration.
# One (1) ml of Fastin Dye Reagent, along with 100 μl of 90% saturated ammonium sulphate was added to each tube. The microcentrifuge tubes were mixed with a vortex mixer and then allowed to incubate for at least 60 minutes at room temperature, with gentle mechanical agitation. The Fastin Dye Reagent interacts with unique amino acid sequences in the elastin protein. This elastin-dye complex precipitates in the presence of ammonium sulphate. After the incubation was over, the microcentrifuge tubes were spun at 10,000×g for 10 minutes to separate the precipitated elastin-dye complex from the unbound dye. The supernatant was carefully removed and the tubes were inverted to allow any residual supernatant to drain out.
# To release the elastin-bound dye, 1.0 ml of Fastin Destain reagent was added to each microcentrifuge tube. The tubes were capped as quickly as possible, as this reagent contains ammonia and methanol. The tubes were then vortexed. The absorbance of this solution was measured by a plate reader at 490 nm (200 μl volume read).
# An elastin standard curve was generated using 12.5, 25, and 50 μg aliquots of an Elastin Standard into microcentrifuge tubes (in duplicate). These samples were treated as described above (Elastin Assay) and the absorbance values were used to generate a standard curve of known concentrations. To derive the standard curve for the elastin assay, the absorbance was plotted against the elastin concentration in μg/ml for the standards. […] Mean absorbance values for the test materials and untreated samples were then used to estimate the amount of elastin present in each sample.
# [2] = tested on: Fibroblasts (HDFn Cell Line); test: Initial pilot cell viability dose response (MTT assay); details: for cell viability, percent of untreated cells: 48 hours
# Protocol: Initial screening was conducted to identify a test range suitable to determine the effect of a broad range of test material concentrations on cell viability. […] Cultured fibroblasts were exposed to the test materials for 48 hours and then changes in cell viability were determined using an MTT assay (i.e., a colorimetric analysis of the metabolic activity of the cultured cells, described in greater detail below).
# The purple crystals are extracted from the cells with isopropanol and the amount of crystal formation quantified spectrophotometrically. […] A decrease in color intensity can be a sign of toxicity.
# Fibroblasts (Cascade Biologics, HDFn Cell Line, lot#1C0914) were seeded into the individual wells of either a 96-well plate (for the initial pilot work to determine concentration effects on cell viability) in 100 μl of Fibroblast Growth Media (FGM) or in 12-well plates (for the measurement of collagen, elastin and MMP-1) in 1.0 ml of FGM and incubated overnight at 37±2° C. and 5±1% CO2. On the following day, the medium was removed via aspiration to eliminate any non-adherent cells and replaced with fresh FGM. The cells were grown until confluent, with a media change every 48 to 72 hours. Upon reaching confluency, the cells were treated for 24 hours with Dulbecco's Modified Essential Media (DMEM) supplemented with 1.5% FBS to wash out any effects from the growth factors included in the normal FGM. After this 24-hour wash out period, the cells were treated with the test materials at the specified concentrations dissolved in DMEM with 1.5% FBS. Untreated cells (negative controls) received DMEM with 1.5% FBS. The cells were incubated for 48 hours and at the end of the incubation period cell culture medium was either discarded (pilot work) or collected and stored frozen at −75° C. The test materials were tested in triplicate.
# After the 2-day incubation, the cell culture medium was removed and the fibroblasts were washed twice with PBS to remove any remaining test material. After the final wash, either 100 μl (96-well plates) or 300 μl (12-well plates) of DMEM supplemented with 0.5 mg/ml MTT were added to each well and the cells were incubated for 1 hour at 37±2° C. and 5±1% CO2. After the incubation, the DMEM/MTT solution was removed and the cells were washed again once with PBS and then either 100 μl (96-well plates) or 1 ml (12-well plates) of isopropyl alcohol were added to each well to extract the purple formazin crystals. For the 12-well plates, two hundred microliters of the isopropyl extracts was transferred to a 96-well plate. The 96-well plates were read at 540 nm using isopropyl alcohol as a blank. The mean MTT absorbance value for the negative control cells was calculated and used to represent 100% value for cell viability. The individual MTT values from the cells undergoing the various treatments were then divided by the mean value for the negative control cells and expressed as a percent, to determine the change in cell viability caused by each treatment.
# [3] = tested on: cultured dermal fibroblasts; test: UVB protection, initial MTT assay (material applied after UVB); details: 0.14%, −UVB condition
# Protocol: In these experiments, the test material was tested at six concentrations with two duplicate sets of cells prepared. […] Changes in cell viability were then determined 48 hours post material application via an MTT assay, as described above.
# Fibroblasts were seeded into the individual wells of a 96 well plate in 100 μl FGM, and incubated overnight at 37±2° C. and 5±1% CO2. On the following day, the media were removed via aspiration to eliminate any non-adherent cells and replaced with 100 μl of fresh FGM. The cells were grown until confluent, with a media change every 48 to 72 hours.
# An UVLM-26 lamp was used as the source of UVB light. UV light intensity was measured using a UVX radiometer coupled to a UVB sensor probe (UV Products) to determine the time required to deliver an approximate dose of 50 mj/cm^2. Prior to UVB exposure, the FGM was replaced with 100 μl PBS. After exposure, the PBS was removed and replaced with FGM supplemented with either the test materials, 20 μM Trolox, or left unsupplemented. A duplicate set of cells was also prepared and treated as described above, with the exception that they were not exposed to UVB light. […] The cells were allowed to incubate with the test materials for 48 hours, and then changes in cell viability were determined via an MTT assay. […]
# After the 48-hour incubation, the cell culture medium was removed and the fibroblasts were washed with PBS to remove any remaining test material. […] The 96-well plate was then read at 540 nm using isopropyl alcohol as a blank.
# The mean MTT absorbance value for the negative control cells (non-UVB exposed and non test material treated cells) was calculated and used to represent 100% value for cell number. The individual MTT values from the cells undergoing the various treatments was then divided by the mean value for the negative control cells and expressed as a percent, to determine the change in cell viability caused by each treatment. MTT scores for each treatment are expressed as means±the standard deviation of the mean.
molecule,measurement,setting,value
"GC2596-26-D: SELP47K modified with two units of ALSYP (SEQ ID NO:36) peptides in each SELP47K unit; SEQ ID NO:32 (Example 4) (protein, SELP 47K-P4) MDPVVLQRRDWENPGVTQLNRLAAHPPFASDPMGAGAGSGAGAGSALSYPGVGVPGVGVPGVGVPGVGVPGKGVPGVGVPGVGVPGVGVPALSYPGAGAGSGAGAGSGAGAGSGAGAGSALSYPGVGVPGVGVPGVGVPGVGVPGKGVPGVGVPGVGVPGVGVPALSYPGAGAGSGAGAGSGAGAGSGAGAGSALSYPGVGVPGVGVPGVGVPGVGVPGKGVPGVGVPGVGVPGVGVPALSYPGAGAGSGAGAGSGAGAGSGAGAGSALSYPGVGVPGVGVPGVGVPGVGVPGKGVPGVGVPGVGVPGVGVPALSYPGAGAGSGAGAGSGAGAGSGAGAGSALSYPGVGVPGVGVPGVGVPGVGVPGKGVPGVGVPGVGVPGVGVPALSYPGAGAGSGAGAGSGAGAGSGAGAGSALSYPGVGVPGVGVPGVGVPGVGVPGKGVPGVGVPGVGVPGVGVPALSYPGAGAGSGAGAGSGAGAGSGAGAGSALSYPGVGVPGVGVPGVGVPGVGVPGKGVPGVGVPGVGVPGVGVPALSYPGAGAGSGAGAGSGAGAGSGAGAGSALSYPGVGVPGVGVPGVGVPGVGVPGKGVPGVGVPGVGVPGVGVPALSYPGAGAGSGAGAGSGAGAGSGAGAGSALSYPGVGVPGVGVPGVGVPGVGVPGKGVPGVGVPGVGVPGVGVPALSYPGAGAGSGAGAGSGAGAGSGAGAGSALSYPGVGVPGVGVPGVGVPGVGVPGKGVPGVGVPGVGVPGVGVPALSYPGAGAGSGAGAGSGAGAGSGAGAGSALSYPGVGVPGVGVPGVGVPGVGVPGKGVPGVGVPGVGVPGVGVPALSYPGAGAGSGAGAGSGAGAGSGAGAGSALSYPGVGVPGVGVPGVGVPGVGVPGKGVPGVGVPGVGVPGVGVPALSYPGAGAGSGAGAGSGAGAGSGAGAGSALSYPGVGVPGVGVPGVGVPGVGVPGKGVPGVGVPGVGVPGVGVPALSYPGAGAGSGAGAGSGAGAMDPGRYQDLRSHHHHHH",Type-1 C Peptide,[1]; 0.0014%,894 ± 156 ng/mL
same,Type-1 C Peptide,[1]; 0.007%,908 ± 94 ng/mL
same,Type-1 C Peptide,[1]; 0.014%,829 ± 171 ng/mL
same,MMP-1 Activity,MMP-1; 0.0014%,-0.01 ± 0.01 ng/mL
same,MMP-1 Activity,MMP-1; 0.007%,-0.02 ± 0.02 ng/mL
same,MMP-1 Activity,MMP-1; 0.014%,-0.03 ± 0.01 ng/mL
same,effect on MMP-1 activity,MMP-1; summary in words,almost complete loss of detectable MMP-1 activity
same,Elastin,elastin; 0.0014%,72 ± 12 μg/ml media
same,Elastin,elastin; 0.007%,69 ± 4 μg/ml media
same,Elastin,elastin; 0.014%,68 ± 10 μg/ml media
same,"cell viability, percent of untreated cells",[2]; 0.0014%,130 ± 15%
same,"cell viability, percent of untreated cells",[2]; 0.007%,138 ± 9%
same,"cell viability, percent of untreated cells",[2]; 0.014%,145 ± 12%
same,"cell viability, percent of untreated cells",[2]; 0.07%,145 ± 11%
same,"cell viability, percent of untreated cells",[2]; 0.14%,154 ± 24%
same,effect on the number of viable cells,"[2]; initial dose response, summary in words",strongly stimulate increases in the number of viable cells
same,number of viable cells greater than −UVB untreated cells,[3],54%
